Data: publication PMC4241754

Molecular target: WlbA from Thermus thermophilus (Thermus thermophilus)
Assay: crystal structure

stoichiometry N: 4
Substance: WlbA from Thermus thermophilus (enzyme)
